Data published in PMC10229872.

Biological target: Programmed cell death-1 (human (endogenous in PBMCs)) (UniProt Q15116)
Chain of UniProt Q15116 (Q15116 25-288): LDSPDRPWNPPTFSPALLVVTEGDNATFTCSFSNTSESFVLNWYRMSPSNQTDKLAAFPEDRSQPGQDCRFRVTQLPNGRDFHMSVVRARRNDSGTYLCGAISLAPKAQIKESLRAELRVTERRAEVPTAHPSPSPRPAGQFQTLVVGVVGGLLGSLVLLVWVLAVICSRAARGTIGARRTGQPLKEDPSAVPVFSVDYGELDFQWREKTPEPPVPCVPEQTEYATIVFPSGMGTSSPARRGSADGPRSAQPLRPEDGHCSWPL

Row | Substance | reduction of intracellular IFN-gamma in PBMCs stimulated with anti-CD3/CD28 antibodies (FACS) [%] | reduction of intracellular IL-2 in PBMCs stimulated with anti-CD3/CD28 antibodies (FACS) [%] | reduction of intracellular IL-10 in PBMCs stimulated with anti-CD3/CD28 antibodies (FACS) [%] | reduction of intracellular TNF-alpha in PBMCs stimulated with anti-CD3/CD28 antibodies (FACS) [%] | increase of intracellular IL-2 in PBMCs stimulated with anti-CD3/CD28 antibodies (FACS) [%]
1 | soluble monomeric human PD-L1 (from UniProt Q9NZQ7 19-229) (domain or fragment) | 55.3 | 32.5 | 48.5 | 47.3 | 
2 | soluble recombinant Fc fusion protein of hPD-L1 (from UniProt Q9NZQ7 19-229) | 15.1 |  |  |  | 14.2
